Consider 14 molecules from patent publication US20150087577A1 (POLYPHOR, published 2015).

*1 amine or outer side, *2 acyl side, *3 side chain or, on linkers, in order; H or OH if unused. Bridges are numbered along the chain shown (N, C = ends). [ ]: non-standard residue; d: D form. (Pip)G = N-{3-[1'-(4'-methylpiperazinyl)]-propyl}-glycine, CN1CCN(CCCN(CC(=O)[*:2])[*:1])CC1; IsOrn = L-(N',N'-diisobutyl)-ornithine, CC(C)CN(CCC[C@H](N[*:1])C(=O)[*:2])CC(C)C; N(3-imidazol-1-ylpropyl)Gly = O=C(O)CNCCCn1ccnc1; Phe(4-F) = N[C@@H](Cc1ccc(F)cc1)C(=O)O; 2Nal = N[C@@H](Cc1ccc2ccccc2c1)C(=O)O; Cit = NC(=O)NCCC[C@H](N)C(=O)O; NMeK = CN[C@@H](CCCCN)C(=O)O; Sar = CNCC(=O)O

B1: Example 121 (peptide)
peptide: cyclo(YR[Cit]CRG[dP]RRWCY[Cit]Q[dP]P)
modifications: disulfide 4-11
SMILES: N=C(N)NCCC[C@@H]1NC(=O)[C@@H]2CSSC[C@H](NC(=O)[C@H](Cc3c[nH]c4ccccc34)NC(=O)[C@H](CCCNC(=N)N)NC(=O)[C@H](CCCNC(=N)N)NC(=O)[C@H]3CCCN3C(=O)CNC1=O)C(=O)N[C@@H](Cc1ccc(O)cc1)C(=O)N[C@@H](CCCNC(N)=O)C(=O)N[C@@H](CCC(N)=O)C(=O)N1CCC[C@@H]1C(=O)N1CCC[C@H]1C(=O)N[C@@H](Cc1ccc(O)cc1)C(=O)N[C@@H](CCCNC(=N)N)C(=O)N[C@@H](CCCNC(N)=O)C(=O)N2
B2: Example 125 (peptide)
peptide: cyclo(YR[Cit]CRG[dP][N(3-imidazol-1-ylpropyl)Gly]R[2Nal]CY[Cit]K[dP]P)
modifications: disulfide 4-11
SMILES: N=C(N)NCCC[C@@H]1NC(=O)CN(CCCn2ccnc2)C(=O)[C@H]2CCCN2C(=O)CNC(=O)[C@H](CCCNC(=N)N)NC(=O)[C@@H]2CSSC[C@H](NC(=O)[C@H](Cc3ccc4ccccc4c3)NC1=O)C(=O)N[C@@H](Cc1ccc(O)cc1)C(=O)N[C@@H](CCCNC(N)=O)C(=O)N[C@@H](CCCCN)C(=O)N1CCC[C@@H]1C(=O)N1CCC[C@H]1C(=O)N[C@@H](Cc1ccc(O)cc1)C(=O)N[C@@H](CCCNC(=N)N)C(=O)N[C@@H](CCCNC(N)=O)C(=O)N2
B3: Example 126 (peptide)
peptide: cyclo(YR[Cit]CRG[dP]R[(Pip)G][2Nal]CY[Cit]K[dP]P)
modifications: disulfide 4-11
SMILES: CN1CCN(CCCN2CC(=O)N[C@@H](Cc3ccc4ccccc4c3)C(=O)N[C@H]3CSSC[C@H](NC(=O)[C@H](CCCNC(N)=O)NC(=O)[C@H](CCCNC(=N)N)NC(=O)[C@H](Cc4ccc(O)cc4)NC(=O)[C@@H]4CCCN4C(=O)[C@H]4CCCN4C(=O)[C@H](CCCCN)NC(=O)[C@H](CCCNC(N)=O)NC(=O)[C@H](Cc4ccc(O)cc4)NC3=O)C(=O)N[C@@H](CCCNC(=N)N)C(=O)NCC(=O)N3CCC[C@@H]3C(=O)N[C@@H](CCCNC(=N)N)C2=O)CC1
B4: Example 129 (peptide)
peptide: cyclo(YR[Cit]CRG[dP]RR[2Nal]CY[Sar]K[dP]P)
modifications: disulfide 4-11
SMILES: CN1CC(=O)N[C@@H](CCCCN)C(=O)N2CCC[C@@H]2C(=O)N2CCC[C@H]2C(=O)N[C@@H](Cc2ccc(O)cc2)C(=O)N[C@@H](CCCNC(=N)N)C(=O)N[C@@H](CCCNC(N)=O)C(=O)N[C@H]2CSSC[C@H](NC(=O)[C@H](Cc3ccc4ccccc4c3)NC(=O)[C@H](CCCNC(=N)N)NC(=O)[C@H](CCCNC(=N)N)NC(=O)[C@H]3CCCN3C(=O)CNC(=O)[C@H](CCCNC(=N)N)NC2=O)C(=O)N[C@@H](Cc2ccc(O)cc2)C1=O
B5: Example 132 (peptide)
peptide: cyclo(YR[Cit]CRG[dP]RR[2Nal]CYTK[dP]P)
modifications: disulfide 4-11
SMILES: C[C@@H](O)[C@@H]1NC(=O)[C@H](Cc2ccc(O)cc2)NC(=O)[C@@H]2CSSC[C@H](NC(=O)[C@H](CCCNC(N)=O)NC(=O)[C@H](CCCNC(=N)N)NC(=O)[C@H](Cc3ccc(O)cc3)NC(=O)[C@@H]3CCCN3C(=O)[C@H]3CCCN3C(=O)[C@H](CCCCN)NC1=O)C(=O)N[C@@H](CCCNC(=N)N)C(=O)NCC(=O)N1CCC[C@@H]1C(=O)N[C@@H](CCCNC(=N)N)C(=O)N[C@@H](CCCNC(=N)N)C(=O)N[C@@H](Cc1ccc3ccccc3c1)C(=O)N2
B6: Example 127 (peptide)
peptide: cyclo(YR[Cit]CRG[dP]RR[2Nal]CY[Cit][NMeK][dP]P)
modifications: disulfide 4-11
SMILES: CN1C(=O)[C@H](CCCNC(N)=O)NC(=O)[C@H](Cc2ccc(O)cc2)NC(=O)[C@@H]2CSSC[C@H](NC(=O)[C@H](CCCNC(N)=O)NC(=O)[C@H](CCCNC(=N)N)NC(=O)[C@H](Cc3ccc(O)cc3)NC(=O)[C@@H]3CCCN3C(=O)[C@H]3CCCN3C(=O)[C@@H]1CCCCN)C(=O)N[C@@H](CCCNC(=N)N)C(=O)NCC(=O)N1CCC[C@@H]1C(=O)N[C@@H](CCCNC(=N)N)C(=O)N[C@@H](CCCNC(=N)N)C(=O)N[C@@H](Cc1ccc3ccccc3c1)C(=O)N2
B7: Example 128 (peptide)
peptide: cyclo(YR[Cit]CRG[dP]RRWCY[Cit]K[dP]P)
modifications: disulfide 4-11
SMILES: N=C(N)NCCC[C@@H]1NC(=O)[C@@H]2CSSC[C@H](NC(=O)[C@H](Cc3c[nH]c4ccccc34)NC(=O)[C@H](CCCNC(=N)N)NC(=O)[C@H](CCCNC(=N)N)NC(=O)[C@H]3CCCN3C(=O)CNC1=O)C(=O)N[C@@H](Cc1ccc(O)cc1)C(=O)N[C@@H](CCCNC(N)=O)C(=O)N[C@@H](CCCCN)C(=O)N1CCC[C@@H]1C(=O)N1CCC[C@H]1C(=O)N[C@@H](Cc1ccc(O)cc1)C(=O)N[C@@H](CCCNC(=N)N)C(=O)N[C@@H](CCCNC(N)=O)C(=O)N2
B8: Example 120 (peptide)
peptide: cyclo(YHTCRG[dP]RHWCYQK[dP]P)
modifications: disulfide 4-11
SMILES: C[C@@H](O)[C@@H]1NC(=O)[C@H](Cc2c[nH]cn2)NC(=O)[C@H](Cc2ccc(O)cc2)NC(=O)[C@@H]2CCCN2C(=O)[C@H]2CCCN2C(=O)[C@H](CCCCN)NC(=O)[C@H](CCC(N)=O)NC(=O)[C@H](Cc2ccc(O)cc2)NC(=O)[C@@H]2CSSC[C@H](NC1=O)C(=O)N[C@@H](CCCNC(=N)N)C(=O)NCC(=O)N1CCC[C@@H]1C(=O)N[C@@H](CCCNC(=N)N)C(=O)N[C@@H](Cc1c[nH]cn1)C(=O)N[C@@H](Cc1c[nH]c3ccccc13)C(=O)N2
B9: Example 23 (peptide)
peptide: cyclo(YR[Cit]FRF[dP]RR[2Nal]VY[Cit]K[dP]P)
SMILES: CC(C)[C@@H]1NC(=O)[C@H](Cc2ccc3ccccc3c2)NC(=O)[C@H](CCCNC(=N)N)NC(=O)[C@H](CCCNC(=N)N)NC(=O)[C@H]2CCCN2C(=O)[C@H](Cc2ccccc2)NC(=O)[C@H](CCCNC(=N)N)NC(=O)[C@H](Cc2ccccc2)NC(=O)[C@H](CCCNC(N)=O)NC(=O)[C@H](CCCNC(=N)N)NC(=O)[C@H](Cc2ccc(O)cc2)NC(=O)[C@@H]2CCCN2C(=O)[C@H]2CCCN2C(=O)[C@H](CCCCN)NC(=O)[C@H](CCCNC(N)=O)NC(=O)[C@H](Cc2ccc(O)cc2)NC1=O
B10: Example 124 (peptide)
peptide: cyclo(YR[Cit]CRG[dP][IsOrn]R[2Nal]CY[Cit]K[dP]P)
modifications: disulfide 4-11
SMILES: CC(C)CN(CCC[C@@H]1NC(=O)[C@H]2CCCN2C(=O)CNC(=O)[C@H](CCCNC(=N)N)NC(=O)[C@@H]2CSSC[C@H](NC(=O)[C@H](Cc3ccc4ccccc4c3)NC(=O)[C@H](CCCNC(=N)N)NC1=O)C(=O)N[C@@H](Cc1ccc(O)cc1)C(=O)N[C@@H](CCCNC(N)=O)C(=O)N[C@@H](CCCCN)C(=O)N1CCC[C@@H]1C(=O)N1CCC[C@H]1C(=O)N[C@@H](Cc1ccc(O)cc1)C(=O)N[C@@H](CCCNC(=N)N)C(=O)N[C@@H](CCCNC(N)=O)C(=O)N2)CC(C)C
B11: Example 123 (peptide)
peptide: cyclo(YR[Cit]CRG[dP]RRWCY[Cit]K[dP]P)
modifications: disulfide 4-11
SMILES: N=C(N)NCCC[C@@H]1NC(=O)[C@@H]2CSSC[C@H](NC(=O)[C@H](Cc3c[nH]c4ccccc34)NC(=O)[C@H](CCCNC(=N)N)NC(=O)[C@H](CCCNC(=N)N)NC(=O)[C@H]3CCCN3C(=O)CNC1=O)C(=O)N[C@@H](Cc1ccc(O)cc1)C(=O)N[C@@H](CCCNC(N)=O)C(=O)N[C@@H](CCCCN)C(=O)N1CCC[C@@H]1C(=O)N1CCC[C@H]1C(=O)N[C@@H](Cc1ccc(O)cc1)C(=O)N[C@@H](CCCNC(=N)N)C(=O)N[C@@H](CCCNC(N)=O)C(=O)N2
B12: Example 122 (peptide)
peptide: cyclo(YR[Cit]CRG[dP][Phe(4-F)]RWCY[Cit]K[dP]P)
modifications: disulfide 4-11
SMILES: N=C(N)NCCC[C@@H]1NC(=O)[C@@H]2CSSC[C@H](NC(=O)[C@H](Cc3c[nH]c4ccccc34)NC(=O)[C@H](CCCNC(=N)N)NC(=O)[C@H](Cc3ccc(F)cc3)NC(=O)[C@H]3CCCN3C(=O)CNC1=O)C(=O)N[C@@H](Cc1ccc(O)cc1)C(=O)N[C@@H](CCCNC(N)=O)C(=O)N[C@@H](CCCCN)C(=O)N1CCC[C@@H]1C(=O)N1CCC[C@H]1C(=O)N[C@@H](Cc1ccc(O)cc1)C(=O)N[C@@H](CCCNC(=N)N)C(=O)N[C@@H](CCCNC(N)=O)C(=O)N2
B13: Example 130 (peptide)
peptide: cyclo(YRQCRG[dP]RR[2Nal]CY[Cit]K[dP]P)
modifications: disulfide 4-11
SMILES: N=C(N)NCCC[C@@H]1NC(=O)[C@@H]2CSSC[C@H](NC(=O)[C@H](Cc3ccc4ccccc4c3)NC(=O)[C@H](CCCNC(=N)N)NC(=O)[C@H](CCCNC(=N)N)NC(=O)[C@H]3CCCN3C(=O)CNC1=O)C(=O)N[C@@H](Cc1ccc(O)cc1)C(=O)N[C@@H](CCCNC(N)=O)C(=O)N[C@@H](CCCCN)C(=O)N1CCC[C@@H]1C(=O)N1CCC[C@H]1C(=O)N[C@@H](Cc1ccc(O)cc1)C(=O)N[C@@H](CCCNC(=N)N)C(=O)N[C@@H](CCC(N)=O)C(=O)N2
B14: Example 131 (peptide)
peptide: cyclo(YRTCRG[dP]RR[2Nal]CY[Cit]K[dP]P)
modifications: disulfide 4-11
SMILES: C[C@@H](O)[C@@H]1NC(=O)[C@H](CCCNC(=N)N)NC(=O)[C@H](Cc2ccc(O)cc2)NC(=O)[C@@H]2CCCN2C(=O)[C@H]2CCCN2C(=O)[C@H](CCCCN)NC(=O)[C@H](CCCNC(N)=O)NC(=O)[C@H](Cc2ccc(O)cc2)NC(=O)[C@@H]2CSSC[C@H](NC1=O)C(=O)N[C@@H](CCCNC(=N)N)C(=O)NCC(=O)N1CCC[C@@H]1C(=O)N[C@@H](CCCNC(=N)N)C(=O)N[C@@H](CCCNC(=N)N)C(=O)N[C@@H](Cc1ccc3ccccc3c1)C(=O)N2

Chain of human CXCR4 (P61073 whole entry): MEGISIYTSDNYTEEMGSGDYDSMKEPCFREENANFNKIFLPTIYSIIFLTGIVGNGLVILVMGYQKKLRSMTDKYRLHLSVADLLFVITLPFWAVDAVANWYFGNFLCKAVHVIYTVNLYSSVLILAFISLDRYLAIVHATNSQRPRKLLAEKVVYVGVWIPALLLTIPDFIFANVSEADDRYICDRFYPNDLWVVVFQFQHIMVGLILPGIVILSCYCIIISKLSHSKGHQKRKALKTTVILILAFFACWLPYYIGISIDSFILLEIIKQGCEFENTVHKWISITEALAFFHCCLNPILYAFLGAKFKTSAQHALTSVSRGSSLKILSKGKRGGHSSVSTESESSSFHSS

This assay concerns the target human CXCR4 (human, UniProt P61073 1-352). In words: cell-based or functional assay.
Turning to B1, the “IC50 (nM) Ca2+ assay (method 2)” value came to 6.5 nM.
On the same count and under the same terms, the value for B2 was 330 nM; that for B3 was 19.5 nM; that for B4 was 10.9 nM.
Same read-out and setting: the value for B5 was 1.9 nM.
For B6, the “IC50 (nM) Ca2+ assay (method 2)” value came to 52.2 nM.
Still for that read-out and setting: the value for B7 was 4.5 nM; that for B8 was 8.1 nM.
For the molecule B9, the “IC50 (nM) Ca2+ assay (method 1)” value was determined as 1550 nM.
In the case of B10, the “IC50 (nM) Ca2+ assay (method 2)” value amounted to 5.9 nM.
Still for that read-out and setting: the value for B11 was 10 nM.
The same measure, in the same setting: the value for B12 was 8.8 nM; that for B13 was 4.1 nM.
With B14, the “IC50 (nM) Ca2+ assay (method 2)” value turned out to be 2.4 nM.
